The values that follow come from US20260151494A1 (ARO BIOTHERAPEUTICS, published 2026).

Experiment [1] concerns the target T1, human CD71 extracellular domain (human, UniProt P02786 89-760).
T1 construct: also called hCD71; human CD71-ECD
As to the kind of experiment: primary ELISA, signal ratio to HSA. Background: In an ELISA, binding on a coated surface is turned into a signal by an enzyme label.

In experiment [2] the target is T2, apical domain of cynomolgus CD71 (cynomolgus, UniProt A0A2K5X958 189-383).
T2 construct: domain: apical domain; also called Cyno apical domain
T2 sequence (A0A2K5X958 entry or part of it): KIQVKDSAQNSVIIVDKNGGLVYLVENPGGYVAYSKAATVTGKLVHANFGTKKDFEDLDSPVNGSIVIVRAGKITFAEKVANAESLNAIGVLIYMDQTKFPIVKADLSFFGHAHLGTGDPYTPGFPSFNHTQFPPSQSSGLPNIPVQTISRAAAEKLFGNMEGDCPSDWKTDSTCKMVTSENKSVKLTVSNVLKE
Put plainly: primary ELISA, signal ratio to HSA.

Experiment [3] concerns the target T1, human CD71 extracellular domain. As to the kind of experiment: primary ELISA. Note: test concentration or dose not given here.
In experiment [4] the target is T2, apical domain of cynomolgus CD71. Put plainly: primary ELISA. Note: test concentration or dose not given here.

T1 sequence (P02786 89-760): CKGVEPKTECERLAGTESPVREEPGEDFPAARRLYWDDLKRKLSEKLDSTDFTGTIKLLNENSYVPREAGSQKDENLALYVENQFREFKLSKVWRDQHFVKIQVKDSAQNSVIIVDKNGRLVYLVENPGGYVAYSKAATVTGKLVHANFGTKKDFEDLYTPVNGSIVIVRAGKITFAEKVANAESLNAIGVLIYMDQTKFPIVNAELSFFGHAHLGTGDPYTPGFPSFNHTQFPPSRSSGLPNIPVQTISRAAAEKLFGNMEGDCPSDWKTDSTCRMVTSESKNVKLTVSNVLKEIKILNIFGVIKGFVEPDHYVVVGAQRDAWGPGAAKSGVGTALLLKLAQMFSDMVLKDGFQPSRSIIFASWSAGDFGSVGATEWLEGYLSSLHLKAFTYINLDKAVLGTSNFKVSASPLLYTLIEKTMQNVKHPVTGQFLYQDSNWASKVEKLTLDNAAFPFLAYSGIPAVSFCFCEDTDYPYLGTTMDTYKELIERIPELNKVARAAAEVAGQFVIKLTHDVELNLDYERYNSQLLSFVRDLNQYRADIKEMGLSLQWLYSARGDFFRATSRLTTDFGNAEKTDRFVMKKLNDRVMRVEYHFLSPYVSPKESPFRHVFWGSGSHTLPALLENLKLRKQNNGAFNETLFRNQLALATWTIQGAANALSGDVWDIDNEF

B1: CD71-binding FN3 domain of SEQ ID NO: 142 (designed binder)
chain: MSLPAPKNLVVSRVTEDSARLSWTASDAAFDSFHIWYFEKANEGEAIPLVVPGSERSYDLTGLKPGTEYDVDIGGVKGGAWSIPLGARFTT
Consider B1, for which the “hCD71:HSA” value in experiment [1] is 65. Further, the “Cyno apical domain:HSA” value in experiment [2] was 95. In addition, the results for the RLU in experiment [3] and in experiment [4] were 3.57e+06 RLU and 5.27e+06 RLU, respectively.

B2: CD71-binding FN3 domain of SEQ ID NO: 135 (designed binder)
chain: MSLPAPKNLVVSRVTEDSARLSWTAPDAAFDSFFIGYLEPQSPGEAIALYVPGSERSYDLTGLKPGTEYNVTIQGVKGGFPSEPLIANFTT
In the case of B2, in experiment [1], the “hCD71:HSA” value turned out to be 224. The “Cyno apical domain:HSA” value in experiment [2] was found to be 232. Further, the results for the RLU in experiment [3] and in experiment [4] were 5.86e+06 RLU and 6.07e+06 RLU, respectively.

B3: CD71-binding FN3 domain of SEQ ID NO: 137 (designed binder)
chain: MSLPAPKNLVVSRVTEDSARLSWTAPDAAFDSFFIGYLEPQPPGEAITLYVPGSERSYDLTGLKPGTEYNVTIQGVKGGFPSDPLVAHFTT
In the case of B3, the “hCD71:HSA” value in experiment [1] worked out at 257. Moreover, the “Cyno apical domain:HSA” value in experiment [2] came out at 218. In addition, the RLU turned out to be 7.03e+06 RLU in experiment [3] and 5.96e+06 RLU in experiment [4].

B4: CD71-binding FN3 domain of SEQ ID NO: 138 (designed binder)
chain: MSLPAPKNLVVSRVTEDSARLSWTAPDAAFDSFFIGYLEPQPPGEVIHLFVPGSERSYDLTGLKPGTEYNVTIQGVKGGFPSMPLSAIFTT
In the case of B4, the “hCD71:HSA” value in experiment [1] was found to be 246. Moreover, the “Cyno apical domain:HSA” value in experiment [2] was 275. Further, the RLU in experiment [3] stood at 5.91e+06 RLU; in experiment [4], 6.59e+06 RLU.

B5: CD71-binding FN3 domain of SEQ ID NO: 140 (designed binder)
chain: MSLPAPKNLVVSRVTEDSARLSWTAPDAAFDSFFIGYLEPQPPGEAIHLYVPGSERSYDLTGLKPGTEYNVTIQGVKGGFPSMPLSAIFTT
B5: in experiment [1], the “hCD71:HSA” value was 163. For the same molecule, in experiment [2], the “Cyno apical domain:HSA” value worked out at 199. Moreover, the RLU in experiment [3] worked out at 5.72e+06 RLU; in experiment [4] it was 7.01e+06 RLU.

B6: CD71-binding FN3 domain of SEQ ID NO: 185 (designed binder)
chain: MGSLPAPKNLVVSRVTEDSARLSWTAPDAAFDSFEISYWEHTFNGEAIILFVPGSERSYDLTGLKPGTEYWVQIGGVKGGNWSAPLSAIFTT
With B6, the “hCD71:HSA” value in experiment [1] is 148. Besides, in experiment [2], the “Cyno apical domain:HSA” value came out at 267. The results for the RLU in experiment [3] and in experiment [4] were 2.26e+06 RLU and 4.08e+06 RLU, respectively.

B7: CD71-binding FN3 domain of SEQ ID NO: 133 (designed binder)
chain: MSLPAPKNLVVSRVTEDSARLSWTAPDAAFDSFKIKYAEYDRYGEAIALFVPGSERSYDLTGLKPGTEYFVHIDGVKGGTDSQPLVASFTT
For the molecule B7, in experiment [1], the “hCD71:HSA” value was 138. In addition, the “Cyno apical domain:HSA” value in experiment [2] turned out to be 387. The RLU in experiment [3] was found to be 1.83e+06 RLU; in experiment [4], 5.11e+06 RLU.

B8: CD71-binding FN3 domain of SEQ ID NO: 134 (designed binder)
chain: MSLPAPKNLVVSRVTEDSARLSWTAPDAAFDSFDINYWENESGGEAIALFVPGSERSYDLTGLKPGTEYLVTIAGVKGGWWSKPLYATFTT
For the molecule B8, the “hCD71:HSA” value in experiment [1] is 192. Also, in experiment [2], the “Cyno apical domain:HSA” value was determined as 245. For the same molecule, the RLU in experiment [3] was determined as 4.52e+06 RLU; in experiment [4], 5.77e+06 RLU.

B9: CD71-binding FN3 domain of SEQ ID NO: 129 (designed binder)
chain: MGGSLPAPKNLVVSRVTEDSARLSWTAPDAAFDSFEIGYFENLYLGEAIVLTVPGSERSYDLTGLKPGTEYWVQIGGVKGGNWSAPLSAIFTT
Take B9: in experiment [1], the “hCD71:HSA” value is 159. Further, in experiment [2], the “Cyno apical domain:HSA” value was 313. The RLU in experiment [3] was 2.49e+06 RLU; in experiment [4], 4.89e+06 RLU.

B10: CD71-binding FN3 domain of SEQ ID NO: 136 (designed binder)
chain: MSLPAPKNLVVSRVTEDSARLSWTAPDAAFDSFEIDYVEFIFTGEAIGLIVPGSERSYDLTGLKPGTEYWVTIAGVKGGEWSTPLQAFLTT
As for B10, the “hCD71:HSA” value in experiment [1] stood at 273. The “Cyno apical domain:HSA” value in experiment [2] was 298. Moreover, the values for the RLU in experiment [3] and in experiment [4] were 4.08e+06 RLU and 4.46e+06 RLU, respectively.
